Source: the supplement of paper PMC10899765
Several values for one entry are separate records, joined by “and”; a condition that tells them apart may be missing. Equal values may be shown once.

Tests used:
Settings in all cases: 20 nM; 72 h
MCF10A [1] = test: 5+ nucleoli phenotype percent effect (relative to siNT 0% and siKIF11 100%); higher = more cells with five or more nucleoli
Description: (§1)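 After 72 h, cells were fixed and stained with Hoechst and anti-fibrillarin, and nucleoli per nucleus were counted with CellProfiler. Values are plate-adjusted percent effect for the one-nucleolus and 5+ nucleoli phenotypes, normalised to siNT (0%) and to the positive controls siNOL11 or siKIF11 (100%), as the mean of biological triplicates. Percent viability is the nuclei count relative to siNT.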

MCF10A [2] = test: percent viability (nuclei count relative to siNT); higher = more viable cells
Description: as §1

MCF10A [3] = test: one-nucleolus phenotype percent effect (relative to siNT 0% and siNOL11 100%); higher = more cells with one nucleolus (ribosome biogenesis inhibition)
Description: as §1

Sequence	5+ nucleoli phenotype percent effect (MCF10A [1])	percent viability (MCF10A [2])	one-nucleolus phenotype percent effect (MCF10A [3])
AAGAGAACUGAAAGUGGAGCCU [hsa-miR-3925-5p]	-8.02%	49.5%	-13%
CUUCUUGUGCUCUAGGAUUGU [hsa-miR-578]	-13.1%	32.6%	19.6%
GUCAUACACGGCUCUCCUCUCU [hsa-miR-485-3p]	-1.94%	54.4%	-9.37%
UGCUGAUGGCAGAUGUCGGGUCUG [hsa-miR-8075]	-34.6%	20.8%	44.2%
UUGGGGGUGAGGUUGGUGUCUGG [hsa-miR-6751-5p]	-13.1%	7.37%	13.4%
ACGGGUUAGGCUCUUGGGAGCU [hsa-miR-125b-1-3p]	15.9%	53.9%	13.6%
UCACUCCUCUCCUCCCGUCUU [hsa-miR-483-3p]	-26.9%	45.3%	16.3%
UUGGCCACAAUGGGUUAGAAC [hsa-miR-588]	11.2%	40.2%	9.67%
UCGUUUGCCUUUUUCUGCUU [hsa-miR-1282]	5.62%	84.2%	-8.15%
UGGGCUGAGGGCAGGAGGCCUGU [hsa-miR-4656]	20.8%	9.2%	22.2%
CGGCCCCACGCACCAGGGUAAGA [hsa-miR-874-5p]	38.1%	85.9%	-19.8%
AAUGGCGCCACUAGGGUUGUG [hsa-miR-652-3p]	4.15%	58.1%	7.39%
UAAUACUGUCUGGUAAAACCGU [hsa-miR-429]	61.9%	112%	-19%
ACCUGGACCCAGCGUAGACAAAG [hsa-miR-3690]	65%	79.1%	-25.7%
CCAAUAUUGGCUGUGCUGCUCC [hsa-miR-195-3p]	27.5%	142%	-16.1%
AUAUGGGUUUACUAGUUGGU [hsa-miR-3115]	-8.18%	25%	27.9%
GGGGCCUGGCGGUGGGCGG [hsa-miR-2861]	87.4%	80.1%	-37.2%
AAAGACCCAUUGAGGAGAAGGU [hsa-miR-3667-5p]	-13.6%	99.1%	11.5%
UUCCCUUUGUCAUCCUAUGCCU [hsa-miR-204-5p]	46%	100%	-10.4%
AAAAGUACUUGCGGAUUUUGCU [hsa-miR-548k]	36.4%	75.4%	-15.1%
UAAAAACUGCAAUUACUUUUA [hsa-miR-548aj-3p]	35.3%	115%	-18.5%
CACCAGGCAUUGUGGUCUCC [hsa-miR-1911-3p]	-9.8%	45%	26.3%
UGUGGUAGAUAUAUGCACGAU [hsa-miR-4536-5p]	-25.4%	25.9%	26.2%

Sequence	5+ nucleoli phenotype percent effect (MCF10A [1])	percent viability (MCF10A [2])	one-nucleolus phenotype percent effect (MCF10A [3])
CGGGACUGUAGAGGGCAUGAGC [hsa-miR-8052]	28.9%	42.4%	4.6%
AAGUGAUCUAAAGGCCUACAU [hsa-miR-1245a]	-34%	48.6%	10.4%
UAAGGUGCAUCUAGUGCAGUUAG [hsa-miR-18b-5p]	-32.4%	41.9%	40.6%
GGAUGGAGGAGGGGUCU [hsa-miR-4534]	31%	46.8%	-5.6%
CCCGGCCGGAACGCCGCACU [hsa-miR-6850-3p]	23.1%	65.7%	-20.3%
UCAGUGCAUCACAGAACUUUGU [hsa-miR-148b-3p]	68.9%	126%	-21.1%
CAGCCUGACAGGAACAG [hsa-miR-4293]	4.42%	33.8%	-6.3%
CCUCAAAUGUGGAGCACUAUUCU [hsa-miR-372-5p]	77.2%	140%	-27.9%
AAGGGAAGAUGGUGACCAC [hsa-miR-9500]	-15.3%	26%	15.1%
UAUUGCACUUGUCCCGGCCUGU [hsa-miR-92a-3p]	4.47%	88.8%	-3.22%
AGUAUGUUCUUCCAGGACAGAAC [hsa-miR-567]	34.9%	56.1%	8.77%
AAAAGCUGGGUUGAGAGGA [hsa-miR-320d]	-8.63% and -12.1%	50.4% and 40.7%	27% and 27.3%
AAUCCACGCUGAGCUUGGCAUC [hsa-miR-5092]	-4.16%	22.3%	14.7%
CUCCUGGGGCCCGCACUCUCGC [hsa-miR-1343]	7.58%	66.7%	-9.67%
AGCUACAUUGUCUGCUGGGUUUC [hsa-miR-221-3p]	-17.8%	59.9%	4%
UCAUCCUCGUCUCCCUCCCAG [hsa-miR-5196-3p]	-6.21%	44.3%	-13.1%
AGGAGGCAUCUUGAGAAAUGGA [hsa-miR-3612]	5.34%	16.9%	33.4%
CCUCACCCAGCUCUCUGGCCCUCU [hsa-miR-6862-3p]	15.4%	72%	-26.5%
AGGCUGUGAUGCUCUCCUGAGCCC [hsa-miR-7974]	-12%	22.8%	30.5%
ACUGGACUAGGAGUCAGAAGG [hsa-miR-378i]	-12.9%	32.1%	4.21%
UUGCAGCUGCCUGGGAGUGACUUC [hsa-miR-1301]	-32.5%	49%	26.9%
UGCUUCCUUUCAGAGGGU [hsa-miR-516b-3p]	-29.9%	78.4%	8.29%
